# Measured values published in paper PMC5505701, “Somatostatin binds to the human amyloid β peptide and favors the formation of distinct oligomers” (eLife, 2017).
# B1: ATP synthase subunit gamma, mitochondrial: human brain protein (protein, UniProt P36542 26-298, looked up)
# ATP synthase F(1) complex …: ATLKDITRRLKSIKNIQKITKSMKMVAAAKYARAERELKPARIYGLGSLALYEKADIKGPEDKKKHLLIGVSSDRGLCGAIHSSIAKQMKSEVATLTAAGKEVMLVGIGDKIRGILYRTHSDQFLVAFKEVGRKPPTFGDASVIALELLNSGYEFDEGSIIFNKFRSVISYKTEEKPIFSLNTVASADSMSIYDDIDADVLQNYQEYNLANIIYYSLKESTTSEQSARMTAMDNASKNASEMIDKLTLTFNRTRQAVITKELIEIISGAAALD
# B2: Cytosolic acyl CoA thioester hydrolase: human brain protein (protein, UniProt O00154 1-380, looked up)
# Cytosolic acyl coenzyme A …: MKLLARALRLCEFGRQASSRRLVAGQGCVGPRRGCCAPVQVVGPRADLPPCGACITGRIMRPDDANVAGNVHGGTILKMIEEAGAIISTRHCNSQNGERCVAALARVERTDFLSPMCIGEVAHVSAEITYTSKHSVEVQVNVMSENILTGAKKLTNKATLWYVPLSLKNVDKVLEVPPVVYSRQEQEEEGRKRYEAQKLERMETKWRNGDIVQPVLNPEPNTVSYSQSSLIHLVGPSDCTLHGFVHGGVTMKLMDEVAGIVAARHCKTNIVTASVDAINFHDKIRKGCVITISGRMTFTSNKSMEIEVLVDADPVVDSSQKRYRAASAFFTYVSLSQEGRSLPVPQLVPETEDEKKRFEEGKGRYLQMKAKRQGHAEPQP
# B3: Centractin, beta: human brain protein (protein, UniProt P42025 1-376, looked up)
# Beta-centractin: MESYDIIANQPVVIDNGSGVIKAGFAGDQIPKYCFPNYVGRPKHMRVMAGALEGDLFIGPKAEEHRGLLTIRYPMEHGVVRDWNDMERIWQYVYSKDQLQTFSEEHPVLLTEAPLNPSKNREKAAEVFFETFNVPALFISMQAVLSLYATGRTTGVVLDSGDGVTHAVPIYEGFAMPHSIMRVDIAGRDVSRYLRLLLRKEGVDFHTSAEFEVVRTIKERACYLSINPQKDEALETEKVQYTLPDGSTLDVGPARFRAPELLFQPDLVGDESEGLHEVVAFAIHKSDMDLRRTLFANIVLSGGSTLFKGFGDRLLSEVKKLAPKDIKIKISAPQERLYSTWIGGSILASLDTFKKMWVSKKEYEEDGSRAIHRKTF
# B4: Mu-crystallin homolog: human brain protein (protein, UniProt Q14894 1-314, looked up)
# Ketimine reductase …: MSRVPAFLSAAEVEEHLRSSSLLIPPLETALANFSSGPEGGVMQPVRTVVPVTKHRGYLGVMPAYSAAEDALTTKLVTFYEDRGITSVVPSHQATVLLFEPSNGTLLAVMDGNVITAKRTAAVSAIATKFLKPPSSEVLCILGAGVQAYSHYEIFTEQFSFKEVRIWNRTKENAEKFADTVQGEVRVCSSVQEAVAGADVIITVTLATEPILFGEWVKPGAHINAVGASRPDWRELDDELMKEAVLYVDSQEAALKESGDVLLSGAEIFAELGEVIKGVKPAHCEKTTVFKSLGMAVEDTVAAKLIYDSWSSGK
# B5: Dihydropyrimidinase-related protein 5: human brain protein (protein, UniProt Q9BPU6 1-564, looked up)
# Dihydropyrimidinase-related …: MLANSASVRILIKGGKVVNDDCTHEADVYIENGIIQQVGRELMIPGGAKVIDATGKLVIPGGIDTSTHFHQTFMNATCVDDFYHGTKAALVGGTTMIIGHVLPDKETSLVDAYEKCRGLADPKVCCDYALHVGITWWAPKVKAEMETLVREKGVNSFQMFMTYKDLYMLRDSELYQVLHACKDIGAIARVHAENGELVAEGAKEALDLGITGPEGIEISRPEELEAEATHRVITIANRTHCPIYLVNVSSISAGDVIAAAKMQGKVVLAETTTAHATLTGLHYYHQDWSHAAAYVTVPPLRLDTNTSTYLMSLLANDTLNIVASDHRPFTTKQKAMGKEDFTKIPHGVSGVQDRMSVIWERGVVGGKMDENRFVAVTSSNAAKLLNLYPRKGRIIPGADADVVVWDPEATKTISASTQVQGGDFNLYENMRCHGVPLVTISRGRVVYENGVFMCAEGTGKFCPLRSFPDTVYKKLVQREKTLKVRGVDRTPYLGDVAVVVHPGKKEMGTPLADTPTRPVTRHGGMRDLHESSFSLSGSQIDDHVPKRASARILAPPGGRSSGIW
# Tested on: oligomeric versus monomeric Aβ1-42 (Aβ1-42-biotin bait)
# Assay: Affinity capture interactome Experiment III (oAβ1-42-biotin vs mAβ1-42-biotin)
# Conditions: oligomeric versus monomeric bait; human frontal lobe digitonin extract; TMT; pH 8.0, 4°C overnight
row,Molecule,Experiment III oAβ1-42-B/mAβ1-42-B Ratio
1,B1,3.29
2,B2,4.03
3,B3,3.25
4,B4,2.41
5,B5,3.79
